From the DeepSol protein solubility set

assay: soluble on expression in E. coli; label from the status in PepcDB or PDB records

Sequence | soluble on expression in E. coli
MGSDKIHHHHHHMASISIRCPSCSATEGVVRNGKSTAGHQRYLCSHCRKTWQLQFTYTASQPGTHQKIIDMAMNGVGCRASARIMGVGLYTVLRHLKNSAESVTSRIQPGSDVIVCAEMDEHWGYVGAKSRQRWLFYAYDRIRRTVVAHVFGERTLATLERLLSLLSAFEVVVWMTDGCPLYESRLKGKLHVISKRYTQRIERHNLNLRQHLARLVRKSLSFSKSVELHDKAIGHYLNIKHYQ | not soluble
MLGTIKPNYWIRKLSTKTSYGYRIDARAYVKVVRKTYHFLWKDSEEIVIFNPNADVGGLLYIGGLEHHHHHH | not soluble
MSQAAFVNPSILTWSRERAGLSAAQVARKLPVKPERVEEWESGEARPTFLQAQKWASVAHVPFGFLFLLQPPVEQLPLPDLRTVGNSAPLRPSLELLDTVKDAIRKQDWYLEYLHVQERQPLPFVGRFDSRTPVKTVVSDIRQTLGVDPEKSRLDYDKYSRALIDAAEVAGVLVMRSGIALGNTHRKLEVSEFRGFAISNPLAPVVFINSSDAPTARLFTLMHELAHIWIGSSGVSDAGTANGREEERFCNAVAGEFLVPEALFRTVWSASIEWESNLATLATRFHVSKLVIGRRAMDLGYVTQEQYGAYYQKILKAFRDEKGGAEDYYRNATAKNSTRLSKAVLTETLSGRMLLREAGNLLGVQPAKLRTLAAEHL | not soluble
MEPSGGEQEPGAVRFLDLPWEDVLLPHVLNRVPLRQLLRLQRVSRAFRSLVQLHLAGLRRFDAAQVGPQIPRAALARLLRDAEGLQELALAPCHEWLSDEDLVPVLARNPQLRSVALGGCGQLSRRALGALAEGCPRLQRLSLAHCDWVDGLALRGLADRCPALEELDLTACRQLKDEAIVYLAQRRGAGLRSLSLAVNANVGDAAVQELARNCPELHHLDLTGCLRVGSDGVRTLAEYCPVLRSLRVRHCHHVAESSLSRLRKRGVDIDVEPPLHQALVLLQDMAGFAPFVNLQV | soluble
MSLNPLSRNVIPIEIHRIVAVGDVHGDAERFRQILEMSGVISLRSNSSKQVVWKPRWGTKEGNFFREYGTRLRTTLIQTGDLIDRGEEDLEVLEMAVSLFNEVRTNYTDDKVVLLMGNHELLNLQGHFHYVHSKSMGGFLTRALRKRAFELDGTFGGFILENFTVAYAVADTLFVHAGIDEHVVSDGIERLNREAKQAIRTKNFGHILLGSTGPLWSRKMFLDASNGRCADTKKALASLGVKRVVVGHTPQRSGRVETFCGGSVIAIDVGMSRWMYGNIAALEITVTSYSSGDGEGHHHHHH | soluble
MVAAGDINVRVTSMDSELEFAIQSSTTGKQLFDQVVKTIGLREIWYFGLQYTDNKGFPTWLKLNKKVLSQDVKKDPTLVFKFRAKFYPEDVAEEIIQDVTMRLFYLQVKDGILSDEIYCPPETSVLLASYAMQAKYGDYVPETHVAGCLTADRLLPQRVLGQFKLNSEEWERRIMTWWADHRATTREQAMLEYLKIAQDLEMYGVNYFEIRNKKGTDLYLGVDALGLNIYDKADRLSPKVGFPWSEIRNISFNDKKFVIKPIDKKAHDFVFYAPRLRINKRILALCMGNHELYMRRRKPDTIEVQQMKQQAREDRALKIAEQEKLTREMSAREEAEQRQRDAEKRMAQMQEDMERARLELAEAHNTIHSLEAQLKQLQLAKQALEQKEYELRELTAQLQSEKAMSDGERRHLRDQVDAREREVFSMREEVERQTTVTRQLQTQIHSQQHTQHYSNSHHVSNGHAHDETATDDEDNGATELTNDADQNVPQHELERVTAAEKNIQIKNKLDMLTRELDSVKDQNAVTDYDVLHMENKKAGRDKYKTLRQIRGGNTKRRIDQYENM | not soluble
SCQDLRVLNAIRDYHIGIPLTYTQYKQLTIQVLLDRLVLRRLYPLAIQICEYLRLPEVQGVSRILAHWACYKVQQKDVSDEDVARAINQKLGDTPGVSYSDIAARAYGCGRTELAIKLLEYEPRSGEQVPLLLKMKRSKLALSKAIESGDTDLVFTVLLHLKNELNRGDFFMTLRNQPMALSLYRQFCKHQELDTLKDLYNQDDNHQELGSFHIRASYAAEERIEGRVAALQTAADAFYKAKNEFAAKATEDQMRLLRIQRRLEDELGGRFLDLSLHDTVTTLILGGHNKRAEQLARDFRIPDKRLWWLKLAALADLEDWEELEKFSKSKKSPIGYLPFVEICMKQHNKHEAKKYASRVGPEQKVKALLLVGDVAQAAEVAIEHRNETELSLVLSHCTGATDGAIADKIQRARAQAQKK | soluble
MTSLSQFEPLFLEFMQQEMQVDAAHDIEHVKRVVKTAKQLCDEENADIAIVLPAAYLHDCFTYPKDHPNRKQSSAIAAKKAIAYLESIQYPQHYHDAIAHAIEAHSFSANIRPNTLEAQIVQDADRLDALGAIGVTRCIQVSTHFNAQLYNDNDMFAKERELNDKQFTVDHFQTKLFKIADTMNTESAKLEANKRKAFMQTYLKQLHDEVTALEHHHHHH | soluble
MTHNQSTALLTDMYELTMLQSALADGTAERQCTFEVFGRRLPNERRYGVVAGTPRVLEAVQNFRFTEAQLASLTFLNDTTLEYLRNYRFAGHIDGYREGELYFPHSPILTVRGTFAECVILETVILSIMNADSAVATAAARMVTAADGRTIIEMGSRRTHEYAAVTATRAAYLAGFSATSNLEAVHRYGIPGSGTAAHAWTLLHVNEDGTPNEKSAFESQVRAQGTGTTLLIDTYDIAQGVRNAIEVAGPELGAVRIDSGDLGVMTRKIRQELDNLGAHNTQIVVSSDLDEYAIAGLRGNPVDVFGVGTSVVTGSGAPTAGMVYKLVEVDGNPVSKRSRGKGMLGGAKRAARTHRASGTAVEELVFPYEHPVPQVGTLTSVELTIPLMRDGVVVEGLPTLEESRAYLAQQLVTIPWEGLALSRDEPVLATRHVGFDQLEHHHHHH | soluble
MGSDKIHHHHHHMNLQYVLLNDNSWQSQGEWQTPDTPFMSFAFWQALSDTGAIGEEAGWLPIYILVHRVESDDDFTVQQSLSSVEASIKVKQPVAVLPVFIKGHHRGEFVFDHSWAQAYAQYGLDYYPRLVTSAPYTPITGQRLWLAEGETLDAEIINTAIKGVDDIAQQVDASGWHGLFVTPEMATIATTLMPFNSHTRSAGQSHGVDSASNTSMNIASNTPVLERQGCQFLWQNKNLSQNDQLFADFEEFLATLKAKKRKTIRAERRKVAEQGITCQRKCGDEIIESDWKTFYHCYVMTYAVRGQQPYLSIDFFEALAQNMAEHVMLAQALDAGGEIIASSLFLYDKPDNKMATLYGRYWGALGEYDSLHFELCYYQGIEFAIEQGLHYFDPGTQGEHKLIRGFIPTTTHSLHRIYDARFVPAIADFCHKDRLHMAQYREQAFEALPFNIDNMPTFDNNE | not soluble
MGSDKIHHHHHHMPQLRDSGNHSTAPLDAHTKDEIQSFARIFGIETEYGVSVTGSDRPCDAGQTAMMMFQPIVAEARSTNTYIENGSRLYLDVGSHPEYATAEARDPMDALALDAAGELVMRDLALDAQRRLRSIQGAGSTVHVFKNNVDSAGHSFGCHENYLVRRFVPLKTIEQELLPFLITRQLFTGAGRMGEQGFQITQRADFLDEAVSSATTRSRPMVNTRDEPHADPDAFRRLHVIIGDSNRSQWATMMKLATTHLVLCVIEQAGREGKDSGFARFSFADASAANHKVSRDLTGVEASFDMADGTVMEGGAVAIQERYLEIVERFVGQHPEVCSSLPRTDVHEVIRRWRRVIEAFRSGVSETFADKVDWLAKRRLFDMLRNRAGGRLSVSKLEQLDMDYHDVANGALYASLCRRGAMRTLVNESQAHEAIDVPPHDTRAALRGRFIQSARSHNAQYSCDWTRLSLTSPNRMDVTLLDPFDAQPSDRFLTILEALQ | not soluble
MSLNESEEKNSNSTYSFFFKNLSVTGFYEENCLFMTVKELFDNSIDALCNNKGDENIDEEGQGTQEKKIEIEIKEYGINSSFYEIICRDNGEGIEVKDLEKISEMFLTSKEKCITSGKFGIGLKTILLYSFKTAYGFLHIKIKVKKNKIWDFILVLDKNLNHTFVQNFKEYIDDKWEWTIEISVILKINNNYISDKKIHSYIKLFLLWKKNITVKYIHNPNGEQSIYTYSSHSDTSEENILSMLANNSINMIFKKDFLTSYNYDVNMYVNVRKSEKIIPYEHGHNIGFLFLIRYVNSMPLLRTSSSDCSITVDFRNFLKYYGPQFGIELPTIESRDEMILEELALPSCFDDLNKVANIFPVKRSEKSTWNIMIIGIDVRGRDISFVSLRKNCIKEGEYLSSLIKKCSINLYNNIKRELPQEFENLSDYQLRQALNIYGVQLASSLSKIILKGHEEFKNKIFFLLNEKKKIKNNSTCEKEEYNNKFTSYDENILTRELYSHIKEKIMLNEKTYENPKAKIQLTGDSNKSYYKNEGHHHHHH | not soluble
MGSDKIHHHHHHMKGKHKVIVSTKRLKYEFELRRNLTIIQGDSATGKTTLVDMIRDFVNNPTGTPVEVICDKKCHVVEGSLWKEQLSGISDCIVFIDEGNEFITTVDFADKIQKTDNYYVIVTREALPALPYSVEEIYGIRTSGRYGTLKQSYHEFYRIYGTDTYEDKVSPEIIITEDSNSGYQFFEHVCIENGLKCESMNGKSNVFHYLNKHKGEKILVIADGAAFGSEIDRVLQVIHGRKNVALYLPESFEWMIMDADILKNNTVRSILSNPSEYVESKLYFSWERFFTAILIEQTKDTYLAYAKRKLNPAYLSGAIKESILRKMNIIDLNKKDE | not soluble
TGRVKWTLGGNIYLNRNKVDDISGNELLGTSYLAGGGVFSQSIHITKAGYPVGSFYGYVVDGVYQNEAEAKLAPFDTPQATPGSLRFKDISGPDGLPDGKITSDDMTIIGTAEPKFNYGINSELSWKGLTLSMIFTGRVGGDIANLNRYFLDSFTDTNDNIRAEAWEGRWQGEGTSNFYPAVNGSQGSSYFNKRFSTFLLEDGSFFRLKNLTLAYQFSLKKLRWLRSVRVFGTVTNVFTITNYSGYDPEVSITSGAMSPNVDYAAYPSSRTYSMGINLAF | not soluble
IEGIPVYLLDKESGPFSFFHWIFIYPQAHPQNELSEILTHEGTHARQRHSIDVIISELMCIACWFNPFMWLMKREVRNNLEYMADNRVLEAGHDSKSYQYHLLGLAHQKSAITLSNSFNVLPLKNRITMM | not soluble
TTLASIGKDIIEDADGIAMPHQWLEGNLPVSAKCTVCDKTCGSVLRLQDWRCLWCKAMVHTSCKESLLTKC | soluble
MGSDKIHHHHHHMTDMTYDVEQDVVAESERISAIFSEVLDIGQVAATDNFFNLGGDSFDAIRVMSRLDGNLPIVALFEHPTAETLARFRLTEESLAITRLVPLFDQTKTNGPIVVICVPYGGGDPTAYRDLFNDHPDVRVFGVDFGDAEIHSPSDFSGLINTLVNEIEAIDAEQIIVYGHCAGAATAACLASAITFTTSAVSLVVAASNPVDDPDAAIHDAAMTSDADWGQYLRSLGAFNGLTDKETDAMLTKGRRDHFIATEAYRTLARQPARGIPAMLLLGDKDPATVKVEEIVNKWRKIIDLVKSANVTGGEHYFIRTHAQEVASKVLSFQLKHK | not soluble
GPKDNNKTLKPAIAEYIVKKAKQRIALQRWQDELNRRKNHKGMIFVENTVDLEGPPSDFYYINEYKPAPGISLVNEATFGCSCTDCFFQKCCPAEAGVLLAYNKNQQIKIPPGTPIYECNSRCQCGPDCPNRIVQKGTQYSLCIFRTSNGRGWGVKTLVKIKRMSFVMEYVGEVITSEEAERRGQFYDNKGITYLFDLDYESDEFTVDAARYGNVSHFVNHSCDPNLQVFNVFIDNLDTRLPRIALFSTRTINAGEELTFDYQMKGSGDISSDSIDHSPAKKRVRTVCKCGAVTCRGYLN | soluble
MSDNSTGTTKSRSNVDDVQAHYDLSDAFFALFQDPTRTYSCAYFERDDMTLHEAQVAKLDLTLGKLGLEPGMTLLDVGCGWGSVMKRAVERYDVNVVGLTLSKNQHAYCQQVLDKVDTNRSHRVLLSDWANFSEPVDRIVTIEAIEHFGFERYDDFFKFAYNAMPADGVMLLHSITGLHVKQVIERGIPLTMEMAKFIRFIVTDIFPGGRLPTIETIEEHVTKAGFTITDIQSLQPHFARTLDLWAEALQAHKDEAIEIQSAEVYERYMKYLTGCAKAFRMGYIDCNQFTLAK | soluble
